Measured values published in publication PMC10841698 (Cell, 2023).
Where two headings read alike, the source gives them in different places. Blank lines part the entries; values can stand above or below the binder they belong to.

Columns and labels:
[1] = molecular target: T1, human Wntless (WLS) with a C-terminal Flag tag (human, UniProt Q5T9L3 1-541); assay: cryo-EM structure
T1 sequence: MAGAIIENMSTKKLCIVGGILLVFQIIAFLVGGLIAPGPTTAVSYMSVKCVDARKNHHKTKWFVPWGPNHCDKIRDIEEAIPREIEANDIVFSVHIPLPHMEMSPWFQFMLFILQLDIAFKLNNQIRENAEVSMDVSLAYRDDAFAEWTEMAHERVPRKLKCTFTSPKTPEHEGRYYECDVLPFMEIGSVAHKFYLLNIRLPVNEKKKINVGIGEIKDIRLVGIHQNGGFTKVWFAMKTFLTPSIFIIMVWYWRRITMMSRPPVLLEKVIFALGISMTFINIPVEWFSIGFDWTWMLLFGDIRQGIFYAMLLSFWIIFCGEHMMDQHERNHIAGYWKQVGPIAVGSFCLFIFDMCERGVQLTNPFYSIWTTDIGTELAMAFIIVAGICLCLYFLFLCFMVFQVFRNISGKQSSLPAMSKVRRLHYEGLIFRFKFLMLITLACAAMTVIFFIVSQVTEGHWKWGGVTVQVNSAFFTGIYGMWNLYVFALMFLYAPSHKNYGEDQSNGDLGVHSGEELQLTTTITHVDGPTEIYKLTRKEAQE

[2] = molecular target: T2, endogenous calreticulin (CALR) of HEK293 cells (human (endogenous in HEK293S GnTI-), UniProt P27797 18-417); assay: cryo-EM structure
T2 sequence (looked up): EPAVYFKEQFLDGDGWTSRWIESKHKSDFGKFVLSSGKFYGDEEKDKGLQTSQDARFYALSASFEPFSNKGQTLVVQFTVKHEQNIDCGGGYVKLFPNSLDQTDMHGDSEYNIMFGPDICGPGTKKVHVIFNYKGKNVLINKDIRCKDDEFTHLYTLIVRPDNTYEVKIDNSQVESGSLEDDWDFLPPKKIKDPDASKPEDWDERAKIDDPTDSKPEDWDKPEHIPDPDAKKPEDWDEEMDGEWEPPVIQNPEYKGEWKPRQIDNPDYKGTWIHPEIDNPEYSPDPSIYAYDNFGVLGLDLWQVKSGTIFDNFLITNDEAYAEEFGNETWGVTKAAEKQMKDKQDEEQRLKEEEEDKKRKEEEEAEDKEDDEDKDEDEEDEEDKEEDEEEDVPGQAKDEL

[3] = molecular target: T2, endogenous calreticulin (CALR) of …; assay: cryo-EM structure; remark: listed apart in the source
[4] = molecular target: T3, human full-length RECK without a tag (human, UniProt O95980 23-942); assay: cryo-EM structure
T3 sequence (looked up): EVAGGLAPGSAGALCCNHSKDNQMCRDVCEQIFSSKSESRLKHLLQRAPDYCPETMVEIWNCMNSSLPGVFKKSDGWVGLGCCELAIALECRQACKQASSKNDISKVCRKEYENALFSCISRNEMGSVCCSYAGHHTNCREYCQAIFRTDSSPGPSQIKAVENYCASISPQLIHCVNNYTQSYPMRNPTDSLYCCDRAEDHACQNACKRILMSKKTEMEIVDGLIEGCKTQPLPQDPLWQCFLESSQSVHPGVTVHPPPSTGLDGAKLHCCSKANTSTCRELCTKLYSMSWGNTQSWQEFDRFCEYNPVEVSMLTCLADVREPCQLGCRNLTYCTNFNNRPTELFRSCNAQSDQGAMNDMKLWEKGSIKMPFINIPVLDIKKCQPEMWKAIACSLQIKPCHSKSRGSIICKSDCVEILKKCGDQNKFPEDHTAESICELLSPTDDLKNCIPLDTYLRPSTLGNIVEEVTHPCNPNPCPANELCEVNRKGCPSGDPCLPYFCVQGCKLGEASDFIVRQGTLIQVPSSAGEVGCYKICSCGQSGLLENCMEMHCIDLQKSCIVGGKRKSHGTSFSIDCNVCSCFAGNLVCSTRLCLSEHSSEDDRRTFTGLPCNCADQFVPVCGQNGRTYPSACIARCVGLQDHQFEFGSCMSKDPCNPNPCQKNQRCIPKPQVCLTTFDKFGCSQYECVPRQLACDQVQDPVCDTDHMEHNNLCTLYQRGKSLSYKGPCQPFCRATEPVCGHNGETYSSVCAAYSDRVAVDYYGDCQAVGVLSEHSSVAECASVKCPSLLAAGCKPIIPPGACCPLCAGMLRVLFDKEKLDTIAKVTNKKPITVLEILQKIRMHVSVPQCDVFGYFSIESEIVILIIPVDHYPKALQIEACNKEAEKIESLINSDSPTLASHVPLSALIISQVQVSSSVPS

[5] = molecular target: T1, human Wntless (WLS) with a C-terminal …; assay: co-IP

- binding result [1]: binds
- binding result [2]: binds
B1: human Wnt3a without a tag (ligand, UniProt P56704 19-352, looked up)
chain: SYPIWWSLAVGPQYSSLGSQPILCASIPGLVPKQLRFCRNYVEIMPSVAEGIKIGIQECQHQFRGRRWNCTTVHDSLAIFGPVLDKATRESAFVHAIASAGVAFAVTRSCAEGTAAICGCSSRHQGSPGKGWKWGGCSEDIEFGGMVSREFADARENRPDARSAMNRHNNEAGRQAIASHMHLKCKCHGLSGSCEVKTCWWSQPDFRAIGDFLKDKYDSASEMVVEKHRESRGWVETLRPRYTYFKVPTERDLVYYEASPNFCEPNPETGSFGTRDRTCNVSSHGIDGCDLLCCGRGHNARAERRREKCRCVFHWCCYVSCQECTRVYDVHTCK
modifications: palmitoleate moiety (PAM); N-glycan at Asn298

- binding result [3]: binds
- binding result [4]: binds
B2: human Wnt7a with a C-terminal GG linker and 6xHis tag (ligand, UniProt O00755 32-349, looked up)
chain: LGASIICNKIPGLAPRQRAICQSRPDAIIVIGEGSQMGLDECQFQFRNGRWNCSALGERTVFGKELKVGSREAAFTYAIIAAGVAHAITAACTQGNLSDCGCDKEKQGQYHRDEGWKWGGCSADIRYGIGFAKVFVDAREIKQNARTLMNLHNNEAGRKILEENMKLECKCHGVSGSCTTKTCWTTLPQFRELGYVLKDKYNEAVHVEPVRASRNKRPTFLKIKKPLSYRKPMDTDLVYIEKSPNYCEEDPVTGSVGTQGRACNKTAPQASGCDLMCCGRGYNTHQYARVWQCNCKFHWCCYVKCNTCSERTEMYTCK
modifications: palmitoleate moiety (PAM) on the conserved serine of hairpin 2; N-glycan at Asn295

- binding result [5]: binds
B3: human Wnt7a with a C-terminal GG linker and Strep tag (ligand, UniProt O00755 32-349, looked up)
chain: B2 chain
modifications: palmitoleate moiety (PAM) on the conserved serine of hairpin 2; N-glycan at Asn295
